In assay [1] the target is p185 HER2/neu (UniProt P04626). Put plainly: radioimmunoassay on fixed SKBR3 cells, 125I anti-mouse Ig secondary antibody.
Assay [2] has as its target Epidermal Growth Factor Receptor (UniProt P00533). Nature of the assay: radioimmunoassay on fixed A431 cells (non-target cell line for MGR6), 125I anti-mouse Ig secondary antibody.
Assay [3] has as its target p185 HER2/neu (UniProt P04626). Nature of the assay: radioimmunoassay on fixed SKBR3 cells (non-target cell line for Mint5), 125I anti-mouse Ig secondary antibody.
Assay [4] addresses Epidermal Growth Factor Receptor (UniProt P00533). Nature of the assay: radioimmunoassay on fixed A431 cells, 125I anti-mouse Ig secondary antibody.
The target is the same in assay [5]. Nature of the assay: cell-based or functional assay.

The text below walks through data of patent EP0717753B1.

“immunoconjugate MGR6 - Ocymoidine (antibody)”: the values for the % binding (with p185 HER2/neu [1]; in assay [2]) were 87.5% and 15.3%, respectively.

For the substance “immunoconjugate MGR6 - Piramidatine (antibody)”, in the assay with p185 HER2/neu [1], the % binding turned out to be 105%.

Consider “immunoconjugate Mint5 - Ocymoidine (antibody)”, for which the % binding in the assay with p185 HER2/neu [3] came out at 9.38%. The substance also registered a % binding in assay [4] of 78.5%. In assay [5], this substance showed an INHIBITION OF CELL PROLIFERATION: IC50 CELL LINE A431, protocol A of 1.9e-12; an INHIBITION OF CELL PROLIFERATION: IC50 CELL LINE A431, protocol B of 3.2e-11; an INHIBITION OF PROTEIN … IN CELL SYSTEM: IC50 CELL LINE A431, protocol A of 1e-11; an INHIBITION OF PROTEIN … IN CELL SYSTEM: IC50 CELL LINE A431, protocol B of 1e-11.

Consider “immunoconjugate Mint5 - Piramidatine (antibody)”, for which the % binding with p185 HER2/neu [3] was determined as 18.8%. Moreover, the % binding in assay [4] was 110%. In assay [5], the INHIBITION OF CELL PROLIFERATION: IC50 CELL LINE A431, protocol A worked out at 1.3e-12; the INHIBITION OF CELL PROLIFERATION: IC50 CELL LINE A431, protocol B worked out at 4.2e-11; the INHIBITION OF PROTEIN … IN CELL SYSTEM: IC50 CELL LINE A431, protocol A was 1e-11; the INHIBITION OF PROTEIN … IN CELL SYSTEM: IC50 CELL LINE A431, protocol B is 1e-11.
